Patent publication US20240398942A1 (CHIA TAI TIANQING PHARMACEUTICAL GROUP, published 2024)
Residue numbers refer to the chain shown, from its start.

B1: humanized antibody huC1H1-V1 (antibody, human IgG2, kappa, V domains shown)
VH: EVQLVESGGGLVKPGGSLRLSCAASGFTFSNYGISWVRQAPGKGLEWVASISSGGDNTYYPDNVKGRFTISRDNAKNSLYLQMNSLRAEDTAVYYCARAGEKAMDYWGQGTLVTVSS
VL: EIVLTQSPATLSLSPGERATLSCRASQTINNNLHWYQQKPGQAPRLLIKYASQSISGIPARFSGSGSGTDFTLTISSLEPEDFAVYFCQQFSSWPLTFGGGTKVEIKR
notes: Human IgG2 / kappa
B2: humanized antibody huC1H1-V2 (antibody, human IgG2, kappa, V domains shown)
VH: B1 VH with A49S
VL: B1 VL
notes: Human IgG2 / kappa
B3: chimeric antibody C1H1 (antibody, human IgG1, kappa, V domains shown)
VH: EVKLVESGGGLVKPGASLKLSCAASGFTFSNYGISWVRQTSDKRLEWVASISSGGDNTYYPDNVKGRFTISRENAKNTLYLQMSSLKSEDTALYYCARAGEKAMDYWGQGTSVTVSS
VL: DIVLTQSPVTLSVTPGDSVSLSCRASQTINNNLHWYQQKSHESPRLLIKYASQSISGIPSRFSGSGSGTDFTLSINSVETEDFGIYFCQQFSSWPLTFGAGTKLELKR
notes: also called Chimeric C1H1
B4: BM2 (selicrelumab) (antibody, human IgG2, kappa, V domains shown)
VH: not shown
VL: DIQMTQSPSSVSASVGDRVTITCRASQGIYSWLAWYQQKPGKAPNLLIYTASTLQSGVPSRFSGSGSGTDFTLTISSLQPEDFATYYCQQANIFPLTFGGGTKVEIKR
notes: Benchmark antibody, prepared in-house; also called CD40-BM2; benchmark
B5: BM1 (dacetuzumab) (antibody, human IgG1, kappa, V domains shown)
VH: EVQLVESGGGLVQPGGSLRLSCAASGYSFTGYYIHWVRQAPGKGLEWVARVIPNAGGTSYNQKFKGRFTLSVDNSKNTAYLQMNSLRAEDTAVYYCAREGIYWWGQGTLVTVSS
VL: DIQMTQSPSSLSASVGDRVTITCRSSQSLVHSNGNTFLHWYQQKPGKAPKLLIYTVSNRFSGVPSRFSGSGSGTDFTLTISSLQPEDFATYFCSQTTHVPWTFGQGTKVEIKR
notes: Benchmark antibody, prepared in-house; also called CD40-BM1; benchmark
B6: mouse anti-CD40 monoclonal antibody C1H1 (antibody, V domains shown)
VH: B3 VH
VL: DIVLTQSPVTLSVTPGDSVSLSCRASQTINNNLHWYQQKSHESPRLLIKYASQSISGIPSRFSGSGSGTDFTLSINSVETEDFGIYFCQQFSSWPLTFGAGTKLELK
notes: Parent mouse antibody from a hybridoma; the mouse constant regions are not; also called Mouse C1H1

The binders below were run against T1, recombinant human CD40-his (Acro biosystems, Cat. No. CD0-H5228) (human, UniProt P25942 21-193) (assay: SPR (Biacore T200), antibody captured on anti-human IgG chip, CD40-his as analyte, 1:1 fit).
T1 construct: Bought protein; also called human CD40-his protein; not shown: His tag
Text: (§1) Briefly, a goat anti-human IgG (GE Healthcare, Cat. No. BR100839, human antibody capture kit) was covalently linked to a CM5 chip (GE Healthcare, Cat. No. BR100530, carboxymethylated dextran-coated chip) via the primary amine group using a standard amine coupling kit supplied by Biacore (GE Healthcare, Pittsburgh, PA, USA). Unreacted portions on the biosensor surface were blocked with ethanolamine. Then, the anti-CD40 antibody of the present application and two benchmark antibodies (BM1 (dacetuzumab, Genentech Inc., also referred to CD40-BM1, prepared in-house; the heavy and light chain amino acid sequences are set forth in SEQ ID NOs: 40 and 41, respectively) and BM2 (selicrelumab, Abgenix Inc., also referred to CD40-BM2, prepared in-house; the heavy and light chain amino acid sequences are set forth in SEQ ID NOS: 42 and 43, respectively)) at a concentration of 66.67 nM were directed through the chip at a flow rate of 10 μL/min. Then, serially diluted recombinant human CD40-his (Acro biosystems, Cat. No. CD0-H5228, serially 2-fold diluted from 80 nM in HBS-EP⁺ buffer (supplied by Biacore)) or cynomolgus monkey CD40-his protein (Acro biosystems, Cat. No. CD0-C52H6, serially 2-fold diluted from 80 nM in HBS-EP⁺ buffer (supplied by Biacore)) was directed through the chip at a flow rate of 30 μL/min. The antigen-antibody binding kinetics was tracked for 2 min and the dissociation kinetics was tracked for 10 min. The association and dissociation curves were fitted to a 1:1 Langmuir binding model using BIAcore evaluation software. KD, Kₐ, and Kd values were determined.
A Kd of 1.1 nM, a koff of 0.00248 s⁻¹ and a kon of 2.25e+06 M⁻¹ s⁻¹ were found for B1 in this work. A Kd of 1.17 nM, a koff of 0.0027 s⁻¹ and a kon of 2.31e+06 M⁻¹ s⁻¹ were found for B2 in this work. A Kd of 0.884 nM, a koff of 0.00222 s⁻¹ and a kon of 2.51e+06 M⁻¹ s⁻¹ were found for B3 in this work. A Kd of 7.84 nM, a koff of 0.00162 s⁻¹ and a kon of 206000 M⁻¹ s⁻¹ were found for B4 in this work. A Kd of 9.42 nM, a koff of 0.00756 s⁻¹ and a kon of 803000 M⁻¹ s⁻¹ were found for B5 in this work.

Each binder was assayed against T2, cynomolgus monkey CD40-his protein (Acro biosystems, Cat. No. CD0-C52H6) (cynomolgus monkey, UniProt G7PG38 21-193) in the same assay as above.
T2 construct: Bought protein; not shown: His tag
Text: as §1
A Kd of 1.11 nM, a koff of 0.00237 s⁻¹ and a kon of 2.14e+06 M⁻¹ s⁻¹ were found for B1 in this work. A Kd of 1.07 nM, a koff of 0.00274 s⁻¹ and a kon of 2.56e+06 M⁻¹ s⁻¹ were found for B2 in this work. A Kd of 0.846 nM, a koff of 0.00215 s⁻¹ and a kon of 2.54e+06 M⁻¹ s⁻¹ were found for B3 in this work. A Kd of 8.73 nM, a koff of 0.00151 s⁻¹ and a kon of 173000 M⁻¹ s⁻¹ were found for B4 in this work. A Kd of 9.68 nM, a koff of 0.0074 s⁻¹ and a kon of 764000 M⁻¹ s⁻¹ were found for B5 in this work.

The binders below were run against T3, human CD40-Fc protein (human, biotinylated (sites not given) in the capture ELISA and the benchmark blocking ELISA; not biotinylated in the ligand blocking ELISA) (assay: competitive ELISA: BM2 (selicrelumab) coated as competitor, antibody titrated and pre-mixed with biotinylated human CD40-Fc 0.23 nM, streptavidin-HRP, OD(450-630)).
T3 construct: also called biotinylated human CD40-Fc
Method: The ability of the anti-CD40 antibody of the present application to block the binding of the benchmark to human CD40 was determined by competitive ELISA. Briefly, BM2 antibody was immobilized on a 96-well micro plates at 1 μg/mL in PBS, 100 µL/well, and incubated overnight at 4° C. The next day, the plate was washed once with a washing buffer before a blocking buffer (PBST containing 5% w/v of skim milk) was added. The plate was then incubated at 37° C. for 2 h for blocking. During the blocking of the 96-well plate, the anti-CD40 antibody of the present application or the benchmark was serially 5-fold diluted from 66.7 nM with a biotinylated human CD40-Fc protein (amino acid residues 21-193 of SEQ ID NO: 30 linked to the N terminus of amino acid residues 99-330 of SEQ ID NO: 28, dissolved in PBST containing 2.5% w/v of skim milk at a concentration of 0.23 nM) and then incubated at room temperature for 40 min. After the plate was washed 4 times, the antibody/biotinylated human CD40-Fc mixture was added at 100 μL/well to the plate coated with BM2. The plate was incubated at 37° C. for 40 min and again washed 4 times with the washing buffer. An HRP-labeled streptavidin was added at 100 μL/well, and the plate was incubated at 37° C. for 40 min to detect biotinylated human CD40-Fc immobilized on the plate. Again, the plate was washed 4 times with the washing buffer. Finally, TMB was added and the reaction was stopped by adding 1 M H₂SO₄. The absorbance was read on a microplate reader using the dual wavelength mode (TMB detection wavelength: 450 nm, reference wavelength: 630 nm). Curves of OD(450-630) values vs. antibody concentration were plotted. Data were analyzed using Graphpad Prism software, and IC₅₀ values were obtained.
An IC50 of 0.513 nM was found for B1 in this work. An IC50 of 0.318 nM was found for B2 in this work. An IC50 of 0.125 nM was found for B6 in this work. An IC50 of 0.16 nM was found for B3 in this work. An IC50 of 0.0461 nM was found for B5 in this work.

Each binder was assayed against T3, human CD40-Fc protein (assay: capture ELISA: antibody captured on coated goat anti-human IgG F(ab')2, biotinylated human CD40-Fc 1.15 nM, streptavidin-HRP, OD(450-630)).
Method: The plate was washed once with a washing buffer (PBS+0.05% v/v of Tween-20, PBST) and then blocked with 200 μL/well blocking buffer (PBST containing 5% w/v of skim milk) for 2 h at 37° C. The plate was washed 4 times, and the anti-CD40 antibody of the present application, BM1, BM2, and a negative control hIgG (human immunoglobulin for intravenous injection (pH 4), Hualan Biological Engineering Inc.) serially 5-fold diluted from 66.7 nM in a PBST containing 2.5% w/v of skim milk was added at 100 μL per well. The plate was incubated for 40 min at 37° C. and washed 4 times. A biotinylated human CD40-Fc protein (amino acid residues 21-193 of SEQ ID NO: 30 linked to the N terminus of amino acid residues 99-330 of SEQ ID NO: 28, dissolved in PBST containing 2.5% w/v of skim milk at a concentration of 1.15 nM) was added at 100 μL/well to a 96-well plate coated with the anti-CD40 antibody. The plate was incubated at 37° C. for 40 min and washed 4 times. An HRP-labeled streptavidin (diluted at 1:10000 in PBST, Jackson Immuno Research, Cat. No. 016-030-084) was added at 100 μL/well, and the plate was incubated at 37° C. for another 40 min. After the last wash, 100 μL/well of ELISA substrate TMB (Innoreagents, Cat. No. TMB-S-002) was added and the plate was incubated at room temperature. After 3-10 min, the reaction was stopped by adding 1 M H₂SO₄ at 50 µL/well, and the absorbance of each well was read on a microplate reader using the dual wavelength mode (TMB detection wavelength: 450 nm, reference wavelength: 630 nm). Curves of OD(450-630) values vs. antibody concentration were plotted. Data were analyzed using Graphpad Prism software, and EC₅₀ values were obtained.
An EC50 of 0.909 nM was found for B4 in this work. An EC50 of 0.463 nM was found for B5 in this work.
